According to doi:10.1101/2023.09.04.556233:
Where two headings read alike, the source gives them in different places.

Tests used:
Experiment in all cases: EMSA
Spalt major (Salm) [1] = molecular target: T1, Spalt major (Salm) (UniProt P39770 1-1365)
T1 sequence: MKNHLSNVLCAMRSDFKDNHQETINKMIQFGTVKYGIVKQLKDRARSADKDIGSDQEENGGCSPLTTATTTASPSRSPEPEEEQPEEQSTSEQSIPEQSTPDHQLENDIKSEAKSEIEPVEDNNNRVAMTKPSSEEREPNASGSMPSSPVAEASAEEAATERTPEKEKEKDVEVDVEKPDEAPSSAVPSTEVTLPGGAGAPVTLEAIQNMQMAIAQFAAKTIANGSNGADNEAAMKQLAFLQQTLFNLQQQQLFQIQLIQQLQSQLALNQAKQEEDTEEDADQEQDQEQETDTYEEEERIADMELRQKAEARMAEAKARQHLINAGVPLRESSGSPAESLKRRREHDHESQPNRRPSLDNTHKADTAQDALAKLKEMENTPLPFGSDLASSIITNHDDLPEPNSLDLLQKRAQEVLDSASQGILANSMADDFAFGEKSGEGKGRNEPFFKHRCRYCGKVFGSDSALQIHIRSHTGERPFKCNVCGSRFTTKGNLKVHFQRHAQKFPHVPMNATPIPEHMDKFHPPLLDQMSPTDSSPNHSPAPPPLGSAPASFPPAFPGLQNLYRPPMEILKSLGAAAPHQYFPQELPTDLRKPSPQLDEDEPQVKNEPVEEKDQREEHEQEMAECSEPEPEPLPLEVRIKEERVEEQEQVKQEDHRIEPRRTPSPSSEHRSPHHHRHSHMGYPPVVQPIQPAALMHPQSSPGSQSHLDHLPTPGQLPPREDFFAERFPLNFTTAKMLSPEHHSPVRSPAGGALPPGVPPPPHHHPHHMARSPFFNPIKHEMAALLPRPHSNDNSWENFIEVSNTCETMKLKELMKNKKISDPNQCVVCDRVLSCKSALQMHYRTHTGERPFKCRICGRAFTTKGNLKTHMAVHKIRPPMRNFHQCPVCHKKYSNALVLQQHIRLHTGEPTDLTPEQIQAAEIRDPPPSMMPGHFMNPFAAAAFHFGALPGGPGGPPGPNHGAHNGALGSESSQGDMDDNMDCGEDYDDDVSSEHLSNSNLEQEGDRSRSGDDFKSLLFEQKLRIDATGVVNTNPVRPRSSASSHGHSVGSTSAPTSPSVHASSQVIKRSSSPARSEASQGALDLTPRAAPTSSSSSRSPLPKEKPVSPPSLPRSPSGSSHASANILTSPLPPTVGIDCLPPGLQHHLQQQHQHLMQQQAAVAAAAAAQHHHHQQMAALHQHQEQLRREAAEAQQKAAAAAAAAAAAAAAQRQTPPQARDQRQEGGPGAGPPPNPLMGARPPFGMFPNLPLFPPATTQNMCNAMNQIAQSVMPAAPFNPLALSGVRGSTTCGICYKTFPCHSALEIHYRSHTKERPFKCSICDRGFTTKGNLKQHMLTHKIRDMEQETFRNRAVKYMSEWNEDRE

Spalt major (Salm) [2] = molecular target: T1, Spalt major (Salm); remark: listed apart in the source
Spalt major (Salm) [3] = molecular target: T1, Spalt major (Salm); remark: listed apart in the source

B1: 60sal (dsDNA)
DNA 1: GCAAAAAGATATCAAAAATGTCGCATATTAATAACGCTCTCCATTGGCGGACACAGGAC
DNA 2: GTCCTGTGTCCGCCAATGGAGAGCGTTATTAATATGCGACATTTTTGATATCTTTTTGC
Spalt major (Salm) [1]
  binding result: binds

B2: 60salC (5' half, conserved) (dsDNA)
DNA 1: GCAAAAAGATATCAAAAATGTCGCATATT
DNA 2: AATATGCGACATTTTTGATATCTTTTTGC
Spalt major (Salm) [2]
  binding result: binds

B3: 60salNC (3' half, non-conserved) (dsDNA)
DNA 1: TTAATAACGCTCTCCATTGGCGGACACAGGAC
DNA 2: GTCCTGTGTCCGCCAATGGAGAGCGTTATTAA
Spalt major (Salm) [3]
  binding result: binds
